We go through nine molecules from patent US20180369326A1 (LA JOLLA INSTITUTE FOR ALLERGY AND IMMUNOLOGY, published 2018).

B3: TANK-binding kinase 1 (TBK1), endogenous, human cell lines (Jurkat JTAg, HEK293T) (enzyme, UniProt Q9UHD2 1-729, looked up)
chain: MQSTSNHLWLLSDILGQGATANVFRGRHKKTGDLFAIKVFNNISFLRPVDVQMREFEVLKKLNHKNIVKLFAIEEETTTRHKVLIMEFCPCGSLYTVLEEPSNAYGLPESEFLIVLRDVVGGMNHLRENGIVHRDIKPGNIMRVIGEDGQSVYKLTDFGAARELEDDEQFVSLYGTEEYLHPDMYERAVLRKDHQKKYGATVDLWSIGVTFYHAATGSLPFRPFEGPRRNKEVMYKIITGKPSGAISGVQKAENGPIDWSGDMPVSCSLSRGLQVLLTPVLANILEADQEKCWGFDQFFAETSDILHRMVIHVFSLQQMTAHKIYIHSYNTATIFHELVYKQTKIISSNQELIYEGRRLVLEPGRLAQHFPKTTEENPIFVVSREPLNTIGLIYEKISLPKVHPRYDLDGDASMAKAITGVVCYACRIASTLLLYQELMRKGIRWLIELIKDDYNETVHKKTEVVITLDFCIRNIEKTVKVYEKLMKINLEAAELGEISDIHTKLLRLSSSQGTIETSLQDIDSRLSPGGSLADAWAHQEGTHPKDRNVEKLQVLLNCMTEIYYQFKKDKAERRLAYNEEQIHKFDKQKLYYHATKAMTHFTDECVKKYEAFLNKSEEWIRKMLHLRKQLLSLTNQCFDIEEEVSKYQEYTNELQETLPQKMFTASSGIKHTMTPIYPSSNTLVEMTLGMKKLKEEMEGVVKELAENNHILERFGSLTMDGGLRNVDCL
notes: Species follows from the human cell lines; also called endogenous TBK1

The target in assay [1] is WT ICOS (wild-type inducible T-cell costimulator, transfected into Jurkat JTAg T cells) (Homo sapiens (Human)) (UniProt Q9Y6W8). The assay is described as follows: SILAC mass spectrometry of anti-ICOS IPs from Jurkat cells expressing WT ICOS or mIProx, stimulated with anti-CD3 plus anti-ICOS.
For assay [2], the target named is T1, p85α, the regulatory subunit of PI3K, endogenous, Jurkat cells (human, UniProt P27986 2-724).
T1 construct: Species follows from the human cell line; also called p85a
T1 sequence (P27986 2-724): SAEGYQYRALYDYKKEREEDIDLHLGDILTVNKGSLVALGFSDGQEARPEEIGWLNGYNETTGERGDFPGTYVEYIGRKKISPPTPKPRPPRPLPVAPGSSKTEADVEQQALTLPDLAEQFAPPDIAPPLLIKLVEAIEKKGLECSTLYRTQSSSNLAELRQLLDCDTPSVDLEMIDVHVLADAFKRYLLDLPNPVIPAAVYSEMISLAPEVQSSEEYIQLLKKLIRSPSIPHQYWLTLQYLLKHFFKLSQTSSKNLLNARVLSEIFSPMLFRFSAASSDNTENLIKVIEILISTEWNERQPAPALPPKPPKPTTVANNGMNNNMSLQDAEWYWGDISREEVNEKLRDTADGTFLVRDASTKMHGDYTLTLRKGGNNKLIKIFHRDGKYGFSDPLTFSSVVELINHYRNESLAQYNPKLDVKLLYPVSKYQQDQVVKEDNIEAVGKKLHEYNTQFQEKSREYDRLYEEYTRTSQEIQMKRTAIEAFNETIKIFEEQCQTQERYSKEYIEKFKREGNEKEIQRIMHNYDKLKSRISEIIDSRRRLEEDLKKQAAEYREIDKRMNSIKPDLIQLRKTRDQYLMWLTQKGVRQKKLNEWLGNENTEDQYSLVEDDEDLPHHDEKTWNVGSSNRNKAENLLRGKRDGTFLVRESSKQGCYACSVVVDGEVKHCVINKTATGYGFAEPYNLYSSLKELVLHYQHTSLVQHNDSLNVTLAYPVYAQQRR
Briefly: co-IP (anti-ICOS IP, immunoblot), transfected Jurkat cells stimulated with anti-CD3 plus anti-ICOS (FIG. 2b, 2c). An excerpt: IPs or whole cell lysates (WCL) were immunoblotted with the indicated Abs. 5% WCL was used as input to control for IP Western. […] Jurkat T cells transfected with WT ICOS, mIProx, YF or tailless (TL) ICOS plasmids were stimulated with anti-CD3 plus −ICOS mAbs prior to IP and immunoblotting. […] In vitro activated primary mouse CD4⁺ T cells were stimulated with anti-CD3 plus the indicated costimulatory mAbs, and IP or WCL were subjected to immunoblotting with the indicated Abs. Shown are representative of three experiments.
(§1) The human leukemic Jurkat T cell line, JTAg, was previously described (Li, J et al. J Immunol 2013, 191(1): 200-207; Rolf J et al., J Immunol 2010, 185(7): 4042-4052) and the HEK 293T cell line was obtained from ATCC. These cell lines have not been recently STR profiled but tested negative for mycoplasma contamination. JTAg cells in logarithmic growth phase were transfected with plasmid DNAs by electroporation and incubated for 24 hours.

For assay [3], the target named is B3. The assay is described as follows: anti-FLAG IP and immunoblot, transfected HEK293T cells (FIG. 6e). Here is the method:
Shown are representative of three experiments.
as §1

Assay [4] deals with T2, WT ICOS (wild-type inducible T-cell costimulator, transfected into Jurkat JTAg T cells) (Homo sapiens (Human), UniProt Q9Y6W8 21-199).
T2 sequence: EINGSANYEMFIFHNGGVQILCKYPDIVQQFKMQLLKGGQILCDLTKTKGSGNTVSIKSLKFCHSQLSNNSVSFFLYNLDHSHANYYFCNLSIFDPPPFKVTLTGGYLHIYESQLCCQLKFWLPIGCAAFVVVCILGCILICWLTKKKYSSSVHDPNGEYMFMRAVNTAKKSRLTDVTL
Briefly: SILAC mass spectrometry of anti-ICOS IPs from Jurkat cells expressing WT ICOS or mIProx, stimulated with anti-CD3 plus anti-ICOS.

Consider “NAA10 (acetyltransferase), endogenous, Jurkat cells (from UniProt P41227 1-235) (enzyme)”, for which the Fold Change (differential binding ratio, WT ICOS IP vs mIProx ICOS IP) in assay [1] turned out to be 2.95 fold.
Same read-out and setting: for “BAG6 (chaperone), endogenous, Jurkat cells (from UniProt P46379 1-1132)” the value was 3.13 fold.
On to “SLP76 (TCR signaling), endogenous, Jurkat cells (from UniProt Q13094 1-533)”, for which the Fold Change (differential binding ratio, WT ICOS IP vs mIProx ICOS IP) in assay [1] is 2.08 fold.
“MYCBP2 (E3 ligase), endogenous, Jurkat cells (from UniProt O75592 1-4678) (enzyme)”: the Fold Change (differential binding ratio, WT ICOS IP vs mIProx ICOS IP) in assay [1] amounted to 5.26 fold.
Still for that read-out and setting: for “Erlin2 (ER protein), endogenous, Jurkat cells (from UniProt O94905 1-339)” the value was 1.81 fold; for “GAK (cell cycle kinase), endogenous, Jurkat cells (from UniProt O14976 2-1311) (enzyme)”, 2.17 fold.

B1: ICOS with alanine-substituted IProx motif (170…179 to 170AAAAAAAAAA179) (receptor)
chain: EINGSANYEMFIFHNGGVQILCKYPDIVQQFKMQLLKGGQILCDLTKTKGSGNTVSIKSLKFCHSQLSNNSVSFFLYNLDHSHANYYFCNLSIFDPPPFKVTLTGGYLHIYESQLCCQLKFWLPIGCAAFVVVCILGCILICWLTKKKYAAAAAAAAAAYMFMRAVNTAKKSRLTDVTL
notes: Expressed from a plasmid in Jurkat JTAg cells; also called mIProx; IProx mutant
With B1, the binding result in assay [2] is recorded as “binds”.

B2: FLAG-tagged WT TRAF3 (other)
chain: MESSKKMDSPGALQTNPPLKLHTDRSAGTPVFVPEQGGYKEKFVKTVEDKYKCEKCHLVLCSPKQTECGHRFCESCMAALLSSSSPKCTACQESIVKDKVFKDNCCKREILALQIYCRNESRGCAEQLMLGHLLVHLKNDCHFEELPCVRPDCKEKVLRKDLRDHVEKACKYREATCSHCKSQVPMIALQKHEDTDCPCVVVSCPHKCSVQTLLRSELSAHLSECVNAPSTCSFKRYGCVFQGTNQQIKAHEASSAVQHVNLLKEWSNSLEKKVSLLQNESVEKNKSIQSLHNQICSFEIEIERQKEMLRNNESKILHLQRVIDSQAEKLKELDKEIRPFRQNWEEADSMKSSVESLQNRVTELESVDKSAGQVARNTGLLESQLSRHDQMLSVHDIRLADMDLRFQVLETASYNGVLIWKIRDYKRRKQEAVMGKTLSLYSQPFYTGYFGYKMCARVYLNGDGMGKGTHLSLFFVIMRGEYDALLPWPFKQKVTLMLMDQGSSRRHLGDAFKPDPNSSSFKKPTGEMNIASGCPVFVAQTVLENGTYIKDDTIFIKVIVDTSDLPDP
notes: Expressed in HEK293T cells; The position of the FLAG tag is unknown; not shown: FLAG tag
On to B2, for which, in assay [3], the binding result is reported as “binds”.
With B3, the “Fold Change (differential binding ratio, WT ICOS IP vs mIProx ICOS IP)” value in assay [4] came out at 7.69 fold.
